Data on 1 substance can be found in PMC4477859.

This experiment concerns the target wild-type CENP-A nucleosome arrays with Myc-H4 (UniProt P49450). Nature of the experiment: pull-down.
UniProt P49450, sequence (P49450 whole entry, looked up): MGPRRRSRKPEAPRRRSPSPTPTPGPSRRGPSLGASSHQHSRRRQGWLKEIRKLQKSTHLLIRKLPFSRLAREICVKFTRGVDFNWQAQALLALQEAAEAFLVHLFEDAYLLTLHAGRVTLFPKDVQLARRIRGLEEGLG

In the case of CENP-C (natural protein), the CENP-C to CENP-A nucleosome ratio, low against high saturation arrays was found to be 2 fold.
